The target of the assay is T1, NFκB family member p65 (human, UniProt Q04206 1-551).
T1 construct: also called p65 NFκB protein
As to the kind of experiment: EMSA gel supershift, HT29 nuclear extract on κB1 oligonucleotide. How it is done: Gel supershift assays were performed as described above, except that antibodies specific for various promoter-binding proteins were added after the initial binding reaction and the mixture was incubated overnight at 4° C.

T1 sequence (Q04206 whole entry): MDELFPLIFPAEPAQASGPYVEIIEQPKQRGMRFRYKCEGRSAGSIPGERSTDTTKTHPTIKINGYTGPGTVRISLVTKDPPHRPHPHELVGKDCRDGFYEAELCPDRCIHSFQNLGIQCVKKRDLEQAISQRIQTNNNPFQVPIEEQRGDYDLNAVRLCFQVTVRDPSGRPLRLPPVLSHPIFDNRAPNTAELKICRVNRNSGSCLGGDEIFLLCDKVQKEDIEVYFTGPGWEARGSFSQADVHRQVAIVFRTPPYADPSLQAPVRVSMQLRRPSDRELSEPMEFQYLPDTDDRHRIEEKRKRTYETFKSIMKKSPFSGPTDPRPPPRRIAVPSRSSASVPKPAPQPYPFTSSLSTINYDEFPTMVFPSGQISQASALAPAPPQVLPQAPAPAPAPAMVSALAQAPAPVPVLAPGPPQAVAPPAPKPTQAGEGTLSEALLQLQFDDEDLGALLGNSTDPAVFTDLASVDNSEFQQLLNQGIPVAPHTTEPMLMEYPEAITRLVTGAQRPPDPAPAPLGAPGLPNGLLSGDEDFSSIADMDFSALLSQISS

B1: NFκB family member p50 (other, human, UniProt P19838 1-433, looked up)
chain: MAEDDPYLGRPEQMFHLDPSLTHTIFNPEVFQPQMALPTDGPYLQILEQPKQRGFRFRYVCEGPSHGGLPGASSEKNKKSYPQVKICNYVGPAKVIVQLVTNGKNIHLHAHSLVGKHCEDGICTVTAGPKDMVVGFANLGILHVTKKKVFETLEARMTEACIRGYNPGLLVHPDLAYLQAEGGGDRQLGDREKELIRQAALQQTKEMDLSVVRLMFTAFLPDSTGSFTRRLEPVVSDAIYDSKAPNASNLKIVRMDRTAGCVTGGEEIYLLCDKVQKDDIQIRFYEEEENGGVWEGFGDFSPTDVHRQFAIVFKTPKYKDINITKPASVFVQLRRKSDLETSEPKPFLYYPEIKDKEEVQRKRQKLMPNFSDSFGGGSGAGAGGGGMFGSGGGGGGTGSTGPGYSFPHYGFPTYGGITFHPGTTKSNAGMKHG
notes: also called p50 NFκB protein
As for B1, the binding result is “binds”.
